In one data set the target is T1, APG30129-L32-nAPG07433.1 (synthetic).
T1 chain: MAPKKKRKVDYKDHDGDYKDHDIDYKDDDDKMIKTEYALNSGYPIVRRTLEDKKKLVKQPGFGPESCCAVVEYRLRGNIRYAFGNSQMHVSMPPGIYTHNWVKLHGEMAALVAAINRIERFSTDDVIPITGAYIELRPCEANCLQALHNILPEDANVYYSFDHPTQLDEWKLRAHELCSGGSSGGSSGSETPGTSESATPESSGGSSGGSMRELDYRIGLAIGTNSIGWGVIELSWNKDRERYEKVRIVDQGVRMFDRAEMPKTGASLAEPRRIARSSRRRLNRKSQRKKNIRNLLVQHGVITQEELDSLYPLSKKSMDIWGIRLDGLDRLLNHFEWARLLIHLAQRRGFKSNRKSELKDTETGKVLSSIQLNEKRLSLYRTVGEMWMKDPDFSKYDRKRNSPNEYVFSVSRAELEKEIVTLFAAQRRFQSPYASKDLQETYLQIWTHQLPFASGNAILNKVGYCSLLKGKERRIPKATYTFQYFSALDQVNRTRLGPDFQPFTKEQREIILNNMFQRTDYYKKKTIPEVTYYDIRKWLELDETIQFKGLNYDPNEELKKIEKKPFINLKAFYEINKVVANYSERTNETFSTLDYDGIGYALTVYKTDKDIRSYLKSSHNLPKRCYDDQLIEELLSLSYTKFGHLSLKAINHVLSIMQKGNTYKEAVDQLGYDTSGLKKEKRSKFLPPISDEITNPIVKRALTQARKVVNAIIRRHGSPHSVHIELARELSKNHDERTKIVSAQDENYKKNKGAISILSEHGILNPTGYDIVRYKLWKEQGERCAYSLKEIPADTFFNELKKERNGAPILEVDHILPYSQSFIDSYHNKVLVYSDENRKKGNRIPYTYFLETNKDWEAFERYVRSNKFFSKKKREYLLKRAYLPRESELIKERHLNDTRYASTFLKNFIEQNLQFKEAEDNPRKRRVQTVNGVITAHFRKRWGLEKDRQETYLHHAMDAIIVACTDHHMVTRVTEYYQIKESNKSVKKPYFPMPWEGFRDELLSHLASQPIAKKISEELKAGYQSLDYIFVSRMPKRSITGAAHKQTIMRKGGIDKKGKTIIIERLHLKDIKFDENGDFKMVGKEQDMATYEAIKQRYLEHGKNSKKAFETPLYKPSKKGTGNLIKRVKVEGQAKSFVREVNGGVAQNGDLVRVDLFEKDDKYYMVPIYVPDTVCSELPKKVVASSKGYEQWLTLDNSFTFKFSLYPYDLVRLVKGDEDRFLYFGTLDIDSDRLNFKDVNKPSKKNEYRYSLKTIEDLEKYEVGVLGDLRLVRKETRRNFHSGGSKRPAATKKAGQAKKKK
In words: cell_activity; HEK293FT; PAM SEQ 152. Conditions: tags: SV40 NLS, 3xFLAG N-term; nucleoplasmin NLS C-term. In outline:
(§1)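 Editing read out by next-generation sequencing (MiSeq 2×250) of PCR amplicons spanning the target site, analysed for INDELs or % cytosine conversion per position (position 1 nearest PAM).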

The next data set addresses T2, APG30130-L32-nAPG07433.1 (synthetic).
T2 chain: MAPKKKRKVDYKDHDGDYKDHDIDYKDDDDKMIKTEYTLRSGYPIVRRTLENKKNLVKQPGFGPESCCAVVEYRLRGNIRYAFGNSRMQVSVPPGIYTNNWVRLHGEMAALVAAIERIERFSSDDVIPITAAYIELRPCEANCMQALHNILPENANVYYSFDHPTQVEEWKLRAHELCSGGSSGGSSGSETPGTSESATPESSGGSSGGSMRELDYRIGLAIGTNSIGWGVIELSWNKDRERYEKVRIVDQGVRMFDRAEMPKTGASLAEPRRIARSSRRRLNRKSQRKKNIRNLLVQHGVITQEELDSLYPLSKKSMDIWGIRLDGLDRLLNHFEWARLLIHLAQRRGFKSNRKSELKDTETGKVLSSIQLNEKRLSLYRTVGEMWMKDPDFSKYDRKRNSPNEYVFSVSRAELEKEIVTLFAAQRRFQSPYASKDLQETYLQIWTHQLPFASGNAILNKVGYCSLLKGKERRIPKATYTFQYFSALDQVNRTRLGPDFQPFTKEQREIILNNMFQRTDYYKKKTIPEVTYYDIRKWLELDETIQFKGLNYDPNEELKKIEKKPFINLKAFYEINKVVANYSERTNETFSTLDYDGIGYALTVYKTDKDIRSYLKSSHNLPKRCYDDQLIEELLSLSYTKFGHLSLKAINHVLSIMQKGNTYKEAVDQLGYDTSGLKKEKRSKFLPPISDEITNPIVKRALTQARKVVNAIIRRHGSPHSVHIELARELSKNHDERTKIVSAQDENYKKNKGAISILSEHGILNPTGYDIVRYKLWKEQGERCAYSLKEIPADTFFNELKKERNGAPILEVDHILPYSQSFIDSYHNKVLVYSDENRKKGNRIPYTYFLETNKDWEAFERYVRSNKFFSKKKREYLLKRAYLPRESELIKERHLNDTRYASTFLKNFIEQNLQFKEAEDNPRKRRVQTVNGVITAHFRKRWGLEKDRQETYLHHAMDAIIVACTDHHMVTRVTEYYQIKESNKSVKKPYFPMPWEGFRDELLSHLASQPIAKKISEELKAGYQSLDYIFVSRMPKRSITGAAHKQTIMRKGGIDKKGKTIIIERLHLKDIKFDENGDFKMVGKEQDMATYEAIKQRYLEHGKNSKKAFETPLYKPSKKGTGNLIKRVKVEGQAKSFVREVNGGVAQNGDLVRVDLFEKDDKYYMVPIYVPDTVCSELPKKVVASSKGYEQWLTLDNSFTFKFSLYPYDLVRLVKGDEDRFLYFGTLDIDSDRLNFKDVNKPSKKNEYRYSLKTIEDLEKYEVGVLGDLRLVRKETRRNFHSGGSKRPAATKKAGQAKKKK
The data set is described as follows: cell_activity; HEK293FT; PAM SEQ 152. The conditions noted are these: tags: SV40 NLS, 3xFLAG N-term; nucleoplasmin NLS C-term. A digest of the protocol:
as §1

B1: SGN000194 sgRNA ; SGN000194 target (ssRNA ; dsDNA)
RNA: GCCGCACAGCAUUCAGGUCGGUCAUAGUUCCAUUAAAGCCAAAAGUGGCUUUGAUGUUUCUAUGAUAAGGGUUUCGACCCGUGGCGUCGGGGAUCGCCUGCCCAUUGAAAUGGGCUUCUCCCCAUUUAUU
DNA 1: GCCGCACAGCATTCAGGTCG
DNA 2: CGACCTGAATGCTGTGCGGC
With B1, the activity was determined as 5.92 % mutated reads with APG30129-L32-nAPG07433.1 and 3.29 % mutated reads with APG30130-L32-nAPG07433.1.

B2: SGN000930 sgRNA ; SGN000930 target (ssRNA ; dsDNA)
RNA: GAACAACUCAAAUGGAAAUGAAUAUGUCAUAGUUCCAUGAAAGCCAAAAGUGGCUUUGAUGUUUCUAUGAUAAGGGUUUCGGCCCGUGGCGUCGGGGAUCGCCUGCCCAUUCCGAUGGGCUUCUCCCCAUUUAUU
DNA 1: GAACAACTCAAATGGAAATGAATAT
DNA 2: ATATTCATTTCCATTTGAGTTGTTC
For B2, the results for the activity with APG30129-L32-nAPG07433.1 and in the data set with APG30130-L32-nAPG07433.1 were 3.47 % mutated reads and 3.14 % mutated reads, respectively.

Values taken from patent publication US20240301385, “DNA MODIFYING ENZYMES AND ACTIVE FRAGMENTS AND VARIANTS THEREOF AND METHODS OF USE” (LIFEEDIT THERAPEUTICS, INC., published 2024).
